Values of other authors as cited in PMC8281132.
pKd: −log10 of the molar value.

Target: CD155 (Homo sapiens) (UniProt P15151)

pKd: 8.70
Substance: TIGIT (from UniProt Q495A1)
